The values that follow come from publication PMC3406685.

Common to all, as to assay: real-time label-free cell adhesion
Experiment [1] deals with Collagen Toolkit III peptide III-7.
Experiment [2] concerns the target Collagen Toolkit II peptide II-27.
In experiment [3] the target is triple-helical peptide II-27-A (GVOGEA within (GPP)5 hosts).

Consider “integrin α1β1 on rat pheochromocytoma PC12 cells (from UniProt P18614 29-1180; P49134 21-799) (receptor)”, for which the increase of adhesion on substitution of Mg2+ with Mn2+ in experiment [1] worked out at 26%; in experiment [2], 65%; in experiment [3], 13%. Besides, the adhesion relative to that on II-27 in experiment [3] worked out at 40%.
